Assay results: article PMC3991680, “In Vitro Calcite Crystal Morphology Is Modulated by Otoconial Proteins Otolin-1 and Otoconin-90” (PLoS ONE, 2014)

B1: recombinant histidine tagged human Otolin-1 (natural protein, UniProt A6NHN0 24-477, looked up)
chain: KTTPHTKFTKKSEEREMPKGLKPSSGPPPEEEETLFTEMAEMAEPITKPSALDSVFGTATLSPFENFTLDPADFFLNCCDCCSPVPGQKGEPGETGQPGPKGEAGNLGIPGPPGVVGPQGPRGYKGEKGLKGERGDQGVPGYPGKPGAQGEPGPKGDKGNIGLGGVKGQKGSKGDTCGNCTKGEKGDQGAMGSPGLHGGPGAKGEKGEMGEKGEMGDKGCCGDSGERGGKGQKGEGGMKGEKGSKGDSGMEGKSGRNGLPGAKGDPGIKGEKGELGPPGLLGPTGPKGDIGNKGVRGPTGKKGSRGFKGSKGELARVPRSAFSAGLSKPFPPPNIPIKFEKILYNDQGNYSPVTGKFNCSIPGTYVFSYHITVRGRPARISLVAQNKKQFKSRETLYGQEIDQASLLVILKLSAGDQVWLEVSKDWNGVYVSAEDDSIFTGFLLYPEETSGISP
notes: Otolin-1, human; OmicsLink Expression-Ready Clone (pReceiver-M77 plasmid, GeneCopoeia) coding for human Otolin-1 with a C-terminal His tag; secreted protein; also called rhOtolin-1; human Otolin-1-His; source: HEK293-F (Freestyle Max 293), transfected; secreted into medium, purified (HisTrap); not shown: His tag, C-terminal, kept
B2: recombinant mouse Otolin-1-Flag (natural protein, UniProt Q4ZJM7 24-482, looked up)
chain: KTTPYTKFTKKSEGKEMLKGLKPSSGFFLDGEETVHTETAAMAEPTTGSPALAMAESTAGPSASATTRLLPFESFSLDTTGFVLNCCHCCSFVTGQKGEPGKMGKQGPKGETGDTGSPGHPGTTGPQGPKGQKGEKGLKGDRGDQGAGGIPGYPGKPGEQGALGPKGDKGTIGPAGTKGQKGSKGELCGNGTKGEKGDPGASGAHGFIGEPGAKGEKGGVGEKGYRGDLGERGEKGQKGEKGMEGEKGSRGDVGSEGKRGSDGLPGLRGDSGPKGEKGEIGSPGFTGPAGPKGELGSKGVRGPTGKKGSRGVKGSKGEATQVPQSAFSALLSKPFPPPNVPIKFDKILSNDQGDYSPVTGKFNCSVPGTYIFSYHVTVRGRPARISLVARNRKQFKSRETLYGQQVDQASLLLILKLSAGDQVWLEVSKDWNGLYVGPEDDSIFSGFLLYPEETFSKSP
notes: Otolin-1, mouse; cDNA amplified by RT-PCR from E16.5 mouse otocysts with primers from the start ATG to the last codon before the stop (FLAG added before the stop codon); secreted protein; The introduction calls rmOtolin-1 histidine tagged, the methods and results Flag tagged; also called rmOtolin-1; Flag tagged recombinant mouse Otolin-1; source: HEK293-T, stably transfected; not shown: FLAG, …

Experiments:
[1] = molecular target: the molecule itself; experiment: atomic force microscopy; 150 nM protein in 500 mM KCl deposited on freshly cleaved mica, incubated 48 hrs, in situ imaging in tapping mode
[2] = molecular target: the molecule itself; experiment: rotary shadowing electron microscopy; rmOtolin-1 adsorbed on mica, rapid freezing, freeze-drying, rotary shadowing

Row | Protein | binding result [1] | binding result [2]
1 | B1 | binds | 
2 | B2 |  | binds
